One block for each binder: values may come before it.
Experiments:
yeast Prp40 = biological target: T1, yeast Prp40 (S. cerevisiae, UniProt P33203 1-583); assay: cross-linking; purified yeast U1 snRNP cross-linked with 100 uM BS3, 30 min, room temperature; trypsin digest, mass spectrometry; settings: both partners purified
T1 construct: Prp40 of S. cerevisiae U1 snRNP; not modelled in the structure; source: endogenous, S. cerevisiae; co-purified in U1 snRNP through the TAP tag on U1A
T1 sequence (looked up): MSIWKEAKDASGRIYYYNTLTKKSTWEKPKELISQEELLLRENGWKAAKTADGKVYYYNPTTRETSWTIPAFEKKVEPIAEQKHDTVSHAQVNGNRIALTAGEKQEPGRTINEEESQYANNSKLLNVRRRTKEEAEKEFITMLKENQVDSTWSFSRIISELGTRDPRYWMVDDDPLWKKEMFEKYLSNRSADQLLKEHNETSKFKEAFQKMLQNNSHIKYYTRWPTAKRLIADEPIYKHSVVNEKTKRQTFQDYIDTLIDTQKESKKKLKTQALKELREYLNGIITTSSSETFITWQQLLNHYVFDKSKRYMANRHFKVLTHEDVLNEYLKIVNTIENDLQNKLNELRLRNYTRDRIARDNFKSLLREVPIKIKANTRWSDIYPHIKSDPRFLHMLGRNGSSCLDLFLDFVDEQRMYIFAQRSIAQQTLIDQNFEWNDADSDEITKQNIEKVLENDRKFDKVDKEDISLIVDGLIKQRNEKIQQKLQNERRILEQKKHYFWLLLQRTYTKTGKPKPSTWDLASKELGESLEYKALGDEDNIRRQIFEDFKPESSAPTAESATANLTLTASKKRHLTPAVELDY

yeast Prp42 = biological target: T2, yeast Prp42 (S. cerevisiae, UniProt Q03776 1-544); assay: cryo-EM structure; natively purified yeast U1 snRNP, 3.6 Å overall resolution; settings: both partners purified
T2 construct: Prp42 of S. cerevisiae, 544 residues; residues 2-540 modelled; source: endogenous, S. cerevisiae; co-purified in U1 snRNP through the TAP tag on U1A
T2 sequence (looked up): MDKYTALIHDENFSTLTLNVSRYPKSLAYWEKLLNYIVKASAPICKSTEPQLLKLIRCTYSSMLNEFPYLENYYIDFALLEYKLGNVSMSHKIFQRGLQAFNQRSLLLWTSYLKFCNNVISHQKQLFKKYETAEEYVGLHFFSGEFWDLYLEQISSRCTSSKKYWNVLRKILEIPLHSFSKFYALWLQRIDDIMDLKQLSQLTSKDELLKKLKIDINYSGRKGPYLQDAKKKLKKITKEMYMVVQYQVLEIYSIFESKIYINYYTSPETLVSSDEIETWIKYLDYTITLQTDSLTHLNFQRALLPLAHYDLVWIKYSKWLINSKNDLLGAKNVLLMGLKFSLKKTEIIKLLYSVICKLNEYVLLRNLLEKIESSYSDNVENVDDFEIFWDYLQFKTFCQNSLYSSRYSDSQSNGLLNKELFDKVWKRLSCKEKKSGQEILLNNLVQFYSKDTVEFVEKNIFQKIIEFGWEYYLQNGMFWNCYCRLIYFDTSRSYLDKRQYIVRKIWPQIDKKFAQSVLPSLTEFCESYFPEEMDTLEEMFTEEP

yeast Snu56 = biological target: T3, yeast Snu56 (S. cerevisiae, UniProt Q03782 1-492); assay: as above; settings: both partners purified
T3 construct: Snu56 of S. cerevisiae, 492 residues; N-terminal domain 47-254 and long helix 255-303 modelled; source: endogenous, S. cerevisiae; co-purified in U1 snRNP through the TAP tag on U1A
T3 sequence (looked up): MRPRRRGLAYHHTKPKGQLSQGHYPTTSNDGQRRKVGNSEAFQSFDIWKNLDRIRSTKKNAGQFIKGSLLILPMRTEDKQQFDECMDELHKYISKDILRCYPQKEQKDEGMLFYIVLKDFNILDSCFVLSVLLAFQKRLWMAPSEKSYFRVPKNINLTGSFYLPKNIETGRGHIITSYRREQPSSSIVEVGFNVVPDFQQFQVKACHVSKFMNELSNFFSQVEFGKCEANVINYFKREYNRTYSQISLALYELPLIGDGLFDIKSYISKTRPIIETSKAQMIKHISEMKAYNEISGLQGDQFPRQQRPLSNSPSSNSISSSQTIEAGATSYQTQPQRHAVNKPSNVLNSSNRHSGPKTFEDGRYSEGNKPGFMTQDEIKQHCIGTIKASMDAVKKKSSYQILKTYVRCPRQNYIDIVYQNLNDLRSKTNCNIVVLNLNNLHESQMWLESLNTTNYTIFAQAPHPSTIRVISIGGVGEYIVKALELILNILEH

yeast U1C = biological target: T4, yeast U1C (S. cerevisiae, UniProt Q05900 1-231); assay: as above; settings: both partners purified
T4 construct: U1C of S. cerevisiae U1 snRNP, 231 residues; NTD residues 1-48; residues 3-47 and 48-195 modelled; also called Yhc1; source: endogenous, S. cerevisiae; co-purified in U1 snRNP through the TAP tag on U1A
T4 sequence (looked up): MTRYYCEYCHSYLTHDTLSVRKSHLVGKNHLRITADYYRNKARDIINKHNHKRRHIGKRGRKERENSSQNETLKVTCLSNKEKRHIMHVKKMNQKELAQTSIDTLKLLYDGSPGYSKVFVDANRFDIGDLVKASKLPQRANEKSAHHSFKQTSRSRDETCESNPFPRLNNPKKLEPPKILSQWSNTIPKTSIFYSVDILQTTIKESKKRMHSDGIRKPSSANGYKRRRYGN

[1] = biological target: the molecule itself; assay: negative-stain EM; purified Flag-PrpF39; reference-free 2D class averages and preliminary 3D model compared with the Prp42/Prp39 heterodimer

binding result (yeast Prp40): binds
binding result (yeast Prp42): binds
binding result (yeast Snu56): binds
B1: yeast Luc7 (natural protein, S. cerevisiae, UniProt Q07508 1-261, looked up)
chain: MSTMSTPAAEQRKLVEQLMGRDFSFRHNRYSHQKRDLGLHDPKICKSYLVGECPYDLFQGTKQSLGKCPQMHLTKHKIQYEREVKQGKTFPEFEREYLAILSRFVNECNGQISVALQNLKHTAEERMKIQQVTEELDVLDVRIGLMGQEIDSLIRADEVSMGMLQSVKLQELISKRKEVAKRVRNITENVGQSAQQKLQVCEVCGAYLSRLDTDRRLADHFLGKIHLGYVKMREDYDRLMKNNRTTNASKTATTLPGRRFV
notes: Luc7 of S. cerevisiae, 261 residues; first (pseudo) Zn-finger modelled; source: endogenous, S. cerevisiae; co-purified in U1 snRNP through the TAP tag on U1A

binding result (yeast Prp42): binds
binding result (yeast U1C): binds
B2: yeast SmD3 (natural protein, S. cerevisiae, UniProt P43321 1-101, looked up)
chain: MTMNGIPVKLLNEAQGHIVSLELTTGATYRGKLVESEDSMNVQLRDVIATEPQGAVTHMDQIFVRGSQIKFIVVPDLLKNAPLFKKNSSRPMPPIRGPKRR
notes: SmD3 of S. cerevisiae, member of the Sm ring of U1 snRNP; source: endogenous, S. cerevisiae; co-purified in U1 snRNP through the TAP tag on U1A

B3: human PrpF39, Flag-tagged (second copy HA-tagged in the co-IP) (natural protein, UniProt Q86UA1 1-669, looked up)
chain: MQNSHMDEYRNSSNGSTGNSSEVVVEHPTDFSTEIMNVTEMEQSPDDSPNVNASTEETEMASAVDLPVTLTETEANFPPEYEKFWKTVENNPQDFTGWVYLLQYVEQENHLMAARKAFDRFFIHYPYCYGYWKKYADLEKRHDNIKPSDEVYRRGLQAIPLSVDLWIHYINFLKETLDPGDPETNNTIRGTFEHAVLAAGTDFRSDRLWEMYINWENEQGNLREVTAIYDRILGIPTQLYSHHFQRFKEHVQNNLPRDLLTGEQFIQLRRELASVNGHSGDDGPPGDDLPSGIEDITDPAKLITEIENMRHRIIEIHQEMFNYNEHEVSKRWTFEEGIKRPYFHVKPLEKAQLKNWKEYLEFEIENGTHERVVVLFERCVISCALYEEFWIKYAKYMENHSIEGVRHVFSRACTIHLPKKPMVHMLWAAFEEQQGNINEARNILKTFEECVLGLAMVRLRRVSLERRHGNLEEAEHLLQDAIKNAKSNNESSFYAVKLARHLFKIQKNLPKSRKVLLEAIERDKENTKLYLNLLEMEYSGDLKQNEENILNCFDKAVHGSLPIKMRITFSQRKVEFLEDFGSDVNKLLNAYDEHQTLLKEQDSLKRKAENGSEEPEEKKAHTEDTTSSSTQMIDGDLQANQAVYNYSAWYQYNYQNPWNYGQYYPPPPT
notes: human PrpF39; In the co-IP two differently tagged copies (Flag-PrpF39 and HA-PrpF39) were co-transfected; The purified protein carries the Flag tag; also called Flag-PrpF39; HA-PrpF39; source: HEK293FT, transfected (pEF-Bos-Flag-PrpF39 and/or pEF-Bos-HA-PrpF39), in lysate; also purified (anti-Flag M2 agarose, 3x Flag peptide elution, Superose 6 gel filtration)
stoichiometry N [1]: 2

From publication PMC5648754, “CryoEM structure of Saccharomyces cerevisiae U1 snRNP offers insight into alternative splicing” (Nature Communications, 2017)
